tested on: Escherichia coli TOP10; assay: shrunken log2 fold change of peptide-encoding DNA abundance (4.5 h post-induction vs induction); higher = less antimicrobial activity (less host growth inhibition); conditions: time post-induction: 4.5 h; library: site-saturation at positions 5, 18, 19, 20
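Note: peptides expressed intracellularly from a pBAD plasmid library in pooled LB shake-flask culture, induced with 0.3% L-arabinose, DNA abundance read by NGS, three biological replicates, DESeq2 with apeglm shrinkage.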

| Sequence | shrunken log2 fold change |
| --- | --- |
| RRIRMRPPRLPRPRPRPDDSPRP | 0.175 |
| RRIRSRPPRLPRPRPRPQVVPRP | -0.144 |
| RRIRARPPRLPRPRPRPHNFPRP | -0.108 |
| RRIRPRPPRLPRPRPRPWMRPRP | 0.715 |
| RRIRNRPPRLPRPRPRPRAYPRP | 0.0694 |
| RRIRWRPPRLPRPRPRPLIIPRP | -0.269 |
| RRIRFRPPRLPRPRPRPEEHPRP | -0.0677 |
| RRIRTRPPRLPRPRPRPINEPRP | -0.405 |
| RRIRCRPPRLPRPRPRPKDQPRP | -0.0507 |
| RRIRNRPPRLPRPRPRPGIVPRP | 0.367 |
| RRIRCRPPRLPRPRPRPVTKPRP | 0.217 |
| RRIRERPPRLPRPRPRPKFLPRP | -0.219 |
| RRIRKRPPRLPRPRPRPRIKPRP | 0.185 |
| RRIRLRPPRLPRPRPRPWCFPRP | -0.158 |
| RRIRFRPPRLPRPRPRPSGLPRP | -0.237 |
| RRIRFRPPRLPRPRPRPAYDPRP | -0.293 |
| RRIRWRPPRLPRPRPRPLHYPRP | -0.369 |
| RRIRYRPPRLPRPRPRPSMGPRP | -0.613 |
| RRIRTRPPRLPRPRPRPVSPPRP | -0.194 |
| RRIRPRPPRLPRPRPRPMQHPRP | -0.0486 |
| RRIRFRPPRLPRPRPRPHLVPRP | -0.33 |
| RRIRVRPPRLPRPRPRPHSTPRP | -0.418 |
| RRIRSRPPRLPRPRPRPGNAPRP | 0.119 |
| RRIRFRPPRLPRPRPRPGEMPRP | 0.123 |
| RRIRMRPPRLPRPRPRPGEAPRP | 2.18 |

| Sequence | shrunken log2 fold change |
| --- | --- |
| RRIRCRPPRLPRPRPRPQVRPRP | -0.236 |
| RRIRHRPPRLPRPRPRPNDKPRP | -0.526 |
| RRIRCRPPRLPRPRPRPHGSPRP | -0.0281 |
| RRIRGRPPRLPRPRPRPVNAPRP | 0.719 |
| RRIRHRPPRLPRPRPRPTWTPRP | 2.15e-05 |
| RRIRDRPPRLPRPRPRPPSNPRP | 0.137 |
| RRIRVRPPRLPRPRPRPMFWPRP | 0.285 |
| RRIRERPPRLPRPRPRPFQSPRP | -0.00776 |
| RRIRRRPPRLPRPRPRPLHWPRP | 0.235 |
| RRIRLRPPRLPRPRPRPRYMPRP | -0.982 |
| RRIRERPPRLPRPRPRPRKSPRP | -0.131 |
| RRIRYRPPRLPRPRPRPRWSPRP | -0.225 |
| RRIRKRPPRLPRPRPRPMNDPRP | 0.188 |
| RRIRWRPPRLPRPRPRPVPAPRP | 0.532 |
| RRIRYRPPRLPRPRPRPWYDPRP | -0.109 |
| RRIRDRPPRLPRPRPRPEHDPRP | -0.0084 |
| RRIRGRPPRLPRPRPRPKDEPRP | 0.696 |
| RRIRKRPPRLPRPRPRPLVQPRP | 0.459 |
| RRIRMRPPRLPRPRPRPKRNPRP | 1.66 |
| RRIRYRPPRLPRPRPRPYAAPRP | -0.546 |
| RRIRHRPPRLPRPRPRPNYKPRP | -0.603 |
| RRIRCRPPRLPRPRPRPFGKPRP | -0.0592 |
| RRIRIRPPRLPRPRPRPWWWPRP | -0.115 |
| RRIRNRPPRLPRPRPRPYFAPRP | -0.198 |
| RRIRMRPPRLPRPRPRPPDNPRP | 1.55 |

| Sequence | shrunken log2 fold change |
| --- | --- |
| RRIRYRPPRLPRPRPRPTIHPRP | -1.2 |
| RRIRRRPPRLPRPRPRPPYSPRP | 0.122 |
| RRIRIRPPRLPRPRPRPDAKPRP | 0.0898 |
| RRIRIRPPRLPRPRPRPFYPPRP | -0.776 |
| RRIRERPPRLPRPRPRPCNKPRP | -0.858 |
| RRIRRRPPRLPRPRPRPGIIPRP | 0.028 |
| RRIRFRPPRLPRPRPRPWFEPRP | -0.0653 |
| RRIRNRPPRLPRPRPRPGIWPRP | 0.0115 |
| RRIRYRPPRLPRPRPRPPGDPRP | 0.152 |
| RRIRDRPPRLPRPRPRPGPIPRP | -0.0864 |
| RRIRPRPPRLPRPRPRPSEYPRP | -0.366 |
| RRIRSRPPRLPRPRPRPTTCPRP | 0.0283 |
| RRIRLRPPRLPRPRPRPVNSPRP | 0.1 |
| RRIRYRPPRLPRPRPRPLRDPRP | 0.0739 |
| RRIRIRPPRLPRPRPRPYICPRP | -0.393 |
| RRIRWRPPRLPRPRPRPFDEPRP | 0.129 |
| RRIRPRPPRLPRPRPRPCSCPRP | -0.516 |
| RRIRYRPPRLPRPRPRPNLCPRP | -1.35 |
| RRIRKRPPRLPRPRPRPFESPRP | 0.0457 |
| RRIRTRPPRLPRPRPRPVPWPRP | 0.95 |
| RRIRMRPPRLPRPRPRPHGCPRP | 0.669 |
| RRIRCRPPRLPRPRPRPDFSPRP | -0.377 |
| RRIRQRPPRLPRPRPRPVYEPRP | -0.0143 |
| RRIRKRPPRLPRPRPRPPLGPRP | 0.668 |
| RRIRVRPPRLPRPRPRPRHFPRP | 0.13 |
